US20110288276A1 (AstraZeneca / MedImmune, published 2011)

Key:
[1] = target: T1, Human FcRn (soluble human neonatal Fc receptor) (human, UniProt P55899 24-290; P61769 21-119, limits assumed); test: SPR (BIAcore 3000), ratio of steady-state Kd values, pH 6.0
T1 construct: also called soluble human FcRn
Excerpt: (§1) The interaction of soluble human FcRn with immobilized unmutated human Fc and Fc/YTE was monitored by surface plasmon resonance detection using a BIAcore 3000 instrument (GE Healthcare, Piscataway, N.J.). Unmutated human Fc and Fc/YTE were first coupled to the dextran matrix of a CM5 sensor chip (GE Healthcare) using an Amine Coupling Kit at a surface density of between 4139 and 4291 RU according to the manufacturer's instructions. Human FcRn was used in equilibrium binding experiments at concentrations ranging from 1.46 nM to 3 uM at a flow rate of 5 uL/min. Dilutions and binding experiments were carried out at 25° C. in phosphate buffered saline (PBS), pH 6.0 containing 0.05% Tween 20. Steady-state binding data were collected for 50 min. Both Fc surfaces were regenerated with six 1-min injection of PBS, pH 7.4 containing 0.05% Tween 20. Human FcRn was also allowed to flow over an uncoated cell. The sensorgrams from these blank runs were then subtracted from those obtained with Fc-coupled chips. Dissociation constants (Kds) were determined by fitting the corresponding binding isotherms.

[2] = target: T1, Human FcRn (soluble human neonatal Fc …); test: SPR (BIAcore 3000), Fc amine-coupled to CM5 chip, soluble human FcRn 1.46 nM to 3 uM, steady-state binding isotherm, PBS pH 6.0 with 0.05% Tween 20, 25 C; error is SD of 2 experiments
Excerpt: as §1
^a Affinity measurements were carried out by BIAcore as described in Materials and Methods. Errors were estimated as the standard deviations of 2 independent experiments for each interacting pair.

T1 sequence (P55899 24-290 limits assumed, chain 1 of 2): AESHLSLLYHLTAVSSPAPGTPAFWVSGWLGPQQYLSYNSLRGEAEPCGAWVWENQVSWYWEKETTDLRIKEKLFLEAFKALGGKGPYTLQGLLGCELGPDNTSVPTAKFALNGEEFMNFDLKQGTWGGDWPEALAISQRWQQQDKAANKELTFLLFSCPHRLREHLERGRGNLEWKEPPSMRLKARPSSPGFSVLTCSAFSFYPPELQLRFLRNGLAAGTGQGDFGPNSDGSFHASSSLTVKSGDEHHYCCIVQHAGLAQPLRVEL
T1 sequence (P61769 21-119 limits assumed, chain 2 of 2): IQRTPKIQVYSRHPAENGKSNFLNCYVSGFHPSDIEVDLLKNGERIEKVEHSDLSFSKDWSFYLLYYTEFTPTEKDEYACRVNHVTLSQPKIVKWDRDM

B1: Fc/YTE (human IgG1 Fc fragment containing the M252Y/S254T/T256E triple substitution) (other)
chain: GGPSVFLFPPKPKDTLYITREPEVTCVVVDVSHEDPEVKFNWYVDGVEVHNAKTKPREEQYNSTYRVVSVLTVLHQDWLNGKEYKCKVSNKALPAPIEKTISKAKGQPREPQVYTLPPSREEMTKNQVSLTCLVKGFYPSDIAVEWESNGQPENNYKTTPPVLDSDGSFFLYSKLTVDKSRWQQGNVFSCSVMHEALHNHYTQKSLSLS
modifications: one branched N-linked carbohydrate chain attached to N297 (EU numbering)
notes: Fc portion (heavy chain residues 223-447, EU) of MEDI-524 with M252Y/S254T/T256E, expressed in HEK 293 cells; It consists of two chemically identical polypeptides with at least one interchain disulfide at C226 and/or C229; In the assay it was amine-coupled to a CM5 chip; also called human IgG Fc variant; YTE-modified human Fc
Question: B1 was tested. Which “fold higher binding affinity than the unmutated human Fc” value [1] did it give?
Answer: Its value is ~8 fold.

Question: And the Kd [2]?
Answer: Its Kd is 72 nM.
